The record followed here is article PMC6308570.

The data set deals with thrombin (UniProt P00734;P00734 328-363;364-622). The data set can be described thus: etched fiber Bragg grating biosensor (immobilized aptamer); thrombin 10, 20, 40, 80 nM; 5 mM MgCl2; Affinity buffer 50 mM Tris-HCl pH 7.4, 250 mM NaCl, 5 mM MgCl2; 2 h incubation; surface blocked with 1% BSA; temperature not stated.

B1: amine-modified thrombin binding aptamer (29-mer with T5 spacer) (ssDNA)
DNA: TTTTTAGTCCGTGGTAGGGCAGGTTGGGGTGACT
modifications: 5' amino C6 (AmC6F)
With B1, the binding result is “binds”.
